For series [1], the target named is T1, CBP HAT domain (UniProt Q92793 1319-1710). In words: EMSA; 20 nM RNA, 0.05-0.6 uM protein, yeast tRNA 0.1 mg/ml; 20 mM HEPES, 40 mM KCl, 1 mM EDTA, 0.2 mM DTT, 0.1 mg/ml BSA, 0.1% Tween-20, 20% glycerol, 0.1 mg/ml yeast tRNA; pH not stated; 1 h at 37 C; 1% agarose, 0.5x TBE. As to conditions: protein: commercial; tags: GST; label: fluorescein-12-UTP, internal.

Series [2] has as its target T1, CBP HAT domain. In words: EMSA; 20 nM RNA, 0.05-0.6 uM protein, yeast tRNA 0.1 mg/ml; almost complete binding at 0.6 uM; 20 mM HEPES, 40 mM KCl, 1 mM EDTA, 0.2 mM DTT, 0.1 mg/ml BSA, 0.1% Tween-20, 20% glycerol, 0.1 mg/ml yeast tRNA; pH not stated; 1 h at 37 C; 1% agarose, 0.5x TBE. The note with it: protein: commercial; tags: GST; label: fluorescein-12-UTP, internal.

The next series addresses CBP bromodomain (UniProt Q92793 1081-1197). Description: EMSA; same concentrations as HAT (up to 0.6 uM); no appreciable binding; 20 mM HEPES, 40 mM KCl, 1 mM EDTA, 0.2 mM DTT, 0.1 mg/ml BSA, 0.1% Tween-20, 20% glycerol, 0.1 mg/ml yeast tRNA; pH not stated; 1 h at 37 C; 1% agarose, 0.5x TBE. As to conditions: protein: commercial; tags: GST; label: fluorescein-12-UTP, internal.

The target of series [3] is T1, CBP HAT domain. Description: competition; against labeled eRNA1; competitor up to 5 uM; 20 mM HEPES, 40 mM KCl, 1 mM EDTA, 0.2 mM DTT, 0.1 mg/ml BSA, 0.1% Tween-20, 20% glycerol, 0.1 mg/ml yeast tRNA; pH not stated; 1 h at 37 C; 1% agarose, 0.5x TBE. As to conditions: protein: commercial; tags: GST.

We go through 4 molecules from article PMC7515708, “Enhancer RNAs predict enhancer–gene regulatory links and are critical for enhancer function in neuronal systems”.

T1 sequence (Q92793 1319-1710): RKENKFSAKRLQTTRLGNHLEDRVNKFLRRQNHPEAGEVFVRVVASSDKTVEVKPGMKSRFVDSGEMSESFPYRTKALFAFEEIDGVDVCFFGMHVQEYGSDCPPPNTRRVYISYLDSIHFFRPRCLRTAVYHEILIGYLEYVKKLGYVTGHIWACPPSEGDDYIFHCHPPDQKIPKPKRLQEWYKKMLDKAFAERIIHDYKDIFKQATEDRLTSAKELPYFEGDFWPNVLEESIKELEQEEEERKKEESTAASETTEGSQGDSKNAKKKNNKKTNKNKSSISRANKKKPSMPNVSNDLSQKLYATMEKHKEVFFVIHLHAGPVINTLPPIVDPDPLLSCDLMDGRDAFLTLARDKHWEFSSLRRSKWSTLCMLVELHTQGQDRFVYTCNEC
CBP bromodomain, sequence (Q92793 1081-1197): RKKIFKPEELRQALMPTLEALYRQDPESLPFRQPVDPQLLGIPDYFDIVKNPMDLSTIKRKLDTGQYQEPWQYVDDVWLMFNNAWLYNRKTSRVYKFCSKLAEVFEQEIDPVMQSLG

B1: ctrl RNA (150), labeled (ssRNA)
RNA: GCUGCCAUCUGUCACCUAACAGGAGGAGGCUGAGAGUUACUUGUCUGGGAGACUUGCUGAGAGACAAGGACAGGCCCUGGAUCUCCUCAAUGUAGCCUGUCCGGGACUAUUCAGUUCUAUGAGGGACUUCUUAGAGAAACUAGGGUGCCC
B1: the binding result with CBP HAT domain [1] is on record as “binds”.

B2: Fos eRNA3 (150), labeled (ssRNA)
RNA: CCUUACUAGCCGCUGAGCGUGCAGGCGUUGGGGACACUUUACACCGGGUUCAGAUUCCAGGGCCGCCACUCCAGGUGGAUAAUGAAGUACAGGCCAUAGUCUUUCUGUGCCCUAGACUGUCAUCUAUAACGUAAGCAUACUAGCAAGACC
In the case of B2, the binding result with CBP HAT domain [1] is on record as “binds”.

B3: Fos eRNA1 (150 nt), labeled (ssRNA)
RNA: UUCGGCGGAACCCAAUACAUGGAGUCUGGAGGUUAAGAGACUGCCAAGAAGUCAAGCGGAAAGAGAAACAAGAACGGGAAAGGAAGCUUGGCUGUUCUGUGGGCUUUGGGGCUUUGACCUUGUCUGGAAGCCAUAAACUCGGCUCGAGGG
For B3, the binding result with CBP HAT domain [2] is on record as “binds”; with CBP bromodomain, “no binding”.

B4: Fos eRNA1 (150 nt), unlabeled competitor (ssRNA)
RNA: UUCGGCGGAACCCAAUACAUGGAGUCUGGAGGUUAAGAGACUGCCAAGAAGUCAAGCGGAAAGAGAAACAAGAACGGGAAAGGAAGCUUGGCUGUUCUGUGGGCUUUGGGGCUUUGACCUUGUCUGGAAGCCAUAAACUCGGCUCGAGGG
Turning to B4, in the series with CBP HAT domain [3], the binding result was “binds”.
